Reference: article PMC12051234, “NrdR in Streptococcus and Listeria spp.: DNA Helix Phase Dependence of the Bacterial Ribonucleotide Reductase Repressor” (Molecular Microbiology, 2025)

Molecular target: T1, EcoNrdR (Escherichia coli) (UniProt P0A8D0)
T1 sequence: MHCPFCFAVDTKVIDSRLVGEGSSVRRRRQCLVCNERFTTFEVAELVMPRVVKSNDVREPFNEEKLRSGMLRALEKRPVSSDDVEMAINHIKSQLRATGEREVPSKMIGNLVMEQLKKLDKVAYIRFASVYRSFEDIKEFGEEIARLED
Experiment: MST
Settings: temperature not stated. Lmo: 25 mM Bis-Tris propane pH 6.5, 100 mM KCl, 5 mM MgCl2, 5% glycerol, 1 mM DTT, 0.05% Tween 20, one nucleotide 1 mM or two at 0.

For “ACTATTTGCTATATATTGTGTGGTTGAATCTTTTTTCAACTACATCTAGTATCTCTG (double strand) [Eco nrdHIEF wild type]”, which Kd is on record?
Its Kd is 130 nM.
